The values that follow come from the RNAGym collection of RNA variant scans (doi:10.1021/acssynbio.7b00057).

First the molecules themselves.
B1: Pistol ribozyme (parent)
chain: GGGUCGUUGUUCCAUAAUCGCGUGGAUAUGGCACGCAAGUUUCUACCGGGCACCGUAAAUGUCCGACUGGAGCCGUUCGGGCGGCUAUAAACAGACCUCAGGCCCGAAGCGUGGCGGCACCUGCCGCCGGUGGUAAAAAAGAUCGGAAGAGCACACGUCU

In this data set the parent is B1. The data set is described as follows: aptazyme ON/OFF ratio, guanine; higher = stronger switching; co-transcriptional cleavage with and without guanine.
As for U7C G9A U10C U11A C12U, the “aptazyme ON/OFF ratio” value came to 1.34.

On to U7G U8A G9A U10C U11C C12U C13A, for which the “aptazyme ON/OFF ratio” value amounted to 1.08.

In the case of U7G U8A G9A U10C U11C C12U C13U, the “aptazyme ON/OFF ratio” value came to 1.03.

In the case of U7A U8A U10G U11C C12G C13A, the “aptazyme ON/OFF ratio” value is 1.23.

With U7A U8C G9C U11G C13U, the “aptazyme ON/OFF ratio” value is 1.1.

Regarding U7A G9C U11C C13G, the “aptazyme ON/OFF ratio” value was 1.04.

For the variant U7A U8G G9U U10C U11A C12G C13G, the “aptazyme ON/OFF ratio” value turned out to be 1.28.

Turning to U7A U8A G9U U11C C12U C13U, the “aptazyme ON/OFF ratio” value is 1.32.

U7A G9U U10G U11G C12G: the “aptazyme ON/OFF ratio” value stood at 1.43.

On to U7A U8A U10G U11A C12A C13G, for which the “aptazyme ON/OFF ratio” value amounted to 1.1.

For U7C U8G G9C U10A U11G C13A, the “aptazyme ON/OFF ratio” value turned out to be 1.19.

As to U7G U8A G9U U10G C12G C13A, the “aptazyme ON/OFF ratio” value was 1.05.

For U7G U8A G9U U10A U11G C13G, the “aptazyme ON/OFF ratio” value was found to be 1.03.

For U7A U8C G9A U10G U11G C12G C13G, the “aptazyme ON/OFF ratio” value was determined as 1.09.

For the variant G9C U10A C12U C13U, the “aptazyme ON/OFF ratio” value was 1.07.

For U7C U8G G9C U10C U11A C12A C13G, the “aptazyme ON/OFF ratio” value is 1.06.

Consider U7C U8A G9U U11G C12G C13G, for which the “aptazyme ON/OFF ratio” value worked out at 1.16.

Take U7A U8G G9U U10A U11C C12A C13U: the “aptazyme ON/OFF ratio” value is 1.37.

In the case of U8A G9U U11G C12U C13A, the “aptazyme ON/OFF ratio” value amounted to 1.41.

U7G U10G U11C C12G C13G: the “aptazyme ON/OFF ratio” value stood at 1.07.

For U8C G9C C13A, the “aptazyme ON/OFF ratio” value is 1.05.

With U7C U8C G9C U10A C12G C13U, the “aptazyme ON/OFF ratio” value amounted to 1.1.

For the variant U7G U8G U11A C12A C13A, the “aptazyme ON/OFF ratio” value came to 1.34.

U7A U8C G9U U11G C12G C13G: the “aptazyme ON/OFF ratio” value came out at 1.16.

With U7C U8A U10C U11C C13U, the “aptazyme ON/OFF ratio” value stood at 1.01.

U7C U8A G9A U10A U11C C12U C13U: the “aptazyme ON/OFF ratio” value stood at 1.1.

Consider U7C U8G G9U U10G U11G C13G, for which the “aptazyme ON/OFF ratio” value is 1.06.

In the case of U7C G9U U10A U11A C12U C13A, the “aptazyme ON/OFF ratio” value turned out to be 1.27.

With U8G G9U U10G U11G C12U, the “aptazyme ON/OFF ratio” value is 1.2.

Regarding U8C G9C U10C U11G C12G C13U, the “aptazyme ON/OFF ratio” value was found to be 1.08.

As for G9C U10C U11C C12A C13U, the “aptazyme ON/OFF ratio” value was 0.997.

For U8C G9U U10C C12U C13A, the “aptazyme ON/OFF ratio” value stood at 1.06.

In the case of U7G U10A C13G, the “aptazyme ON/OFF ratio” value was found to be 1.12.

For U7C U8C U10A U11A C12G C13A, the “aptazyme ON/OFF ratio” value is 1.14.

For U7G U8C G9U U10C U11A C12U C13G, the “aptazyme ON/OFF ratio” value came out at 1.39.

As to U7A U8G G9A U10G U11G C12G, the “aptazyme ON/OFF ratio” value stood at 1.24.

For U7G U8A U11G C12U, the “aptazyme ON/OFF ratio” value was found to be 1.25.

In the case of U7G U8C U11A C12U, the “aptazyme ON/OFF ratio” value is 1.31.

As to U7C U8C G9U U10G U11C C13G, the “aptazyme ON/OFF ratio” value was determined as 1.06.

For U7A U8A G9C C12A C13G, the “aptazyme ON/OFF ratio” value worked out at 1.13.

With U7G U8G G9C U10A U11A, the “aptazyme ON/OFF ratio” value was 1.67.

Consider U7A U8G G9U U10G U11C C12A C13A, for which the “aptazyme ON/OFF ratio” value worked out at 1.14.

U7G U8G U11G: the “aptazyme ON/OFF ratio” value was 2.52.

Turning to U8G G9C U10C C12G C13G, the “aptazyme ON/OFF ratio” value was 1.06.

Turning to U7A U10C, the “aptazyme ON/OFF ratio” value came out at 4.51.

As to U7G U8C G9U U10A C12U, the “aptazyme ON/OFF ratio” value worked out at 2.85.

U7C U8A U10C C13G: the “aptazyme ON/OFF ratio” value was determined as 1.22.

Take U7C U10C U11G C13A: the “aptazyme ON/OFF ratio” value amounted to 0.947.

Take U8G G9U U10A C12G: the “aptazyme ON/OFF ratio” value was 1.15.

Take U8C U10G C12A: the “aptazyme ON/OFF ratio” value is 1.12.

Take U10A C12U C13A: the “aptazyme ON/OFF ratio” value was determined as 1.3.

On to U7A U8G U10C U11A C12U C13U, for which the “aptazyme ON/OFF ratio” value was 1.18.

Take U7G U8A G9A U11G: the “aptazyme ON/OFF ratio” value worked out at 1.26.

Regarding U7C U8A G9A U10A U11A C12A C13G, the “aptazyme ON/OFF ratio” value amounted to 1.18.

Consider U7C U8A G9A U11G C12U C13A, for which the “aptazyme ON/OFF ratio” value was 1.16.

For the variant U7A U8G G9C U10A U11A, the “aptazyme ON/OFF ratio” value amounted to 1.89.

U7A U8A U10G C12U C13U: the “aptazyme ON/OFF ratio” value is 1.42.

Take U7G U8C G9C U10G U11G C12A C13U: the “aptazyme ON/OFF ratio” value was 1.1.

As for U7G U8G G9C U10A U11C C12U C13A, the “aptazyme ON/OFF ratio” value is 1.06.

On to U7C U8G C12A C13U, for which the “aptazyme ON/OFF ratio” value is 1.27.

For U7A U8G G9A U10G U11G C12G C13A, the “aptazyme ON/OFF ratio” value was found to be 0.971.

With U8A G9U U11C C13G, the “aptazyme ON/OFF ratio” value turned out to be 1.02.

U7G U8C G9U U11G C12G C13U: the “aptazyme ON/OFF ratio” value is 1.09.

As to U7A U8G G9A U10C U11G C12A C13G, the “aptazyme ON/OFF ratio” value is 1.19.

Consider U7A U8G G9A U10C U11C C12U C13U, for which the “aptazyme ON/OFF ratio” value was 1.07.

For the variant U8A G9C U10C U11C C12A C13A, the “aptazyme ON/OFF ratio” value is 1.04.

In the case of U7G U8A G9U U10G U11C C12G C13A, the “aptazyme ON/OFF ratio” value stood at 1.09.

Take U7C U8C G9C U10A U11C C13A: the “aptazyme ON/OFF ratio” value was found to be 1.08.

With U8G G9A U10A U11A C13G, the “aptazyme ON/OFF ratio” value is 1.01.

For the variant U7A U8G U10G U11C C12U C13G, the “aptazyme ON/OFF ratio” value was found to be 1.11.

Take U7C U11A C12A: the “aptazyme ON/OFF ratio” value is 1.51.

Consider U7A G9U U10C U11G C12A C13U, for which the “aptazyme ON/OFF ratio” value was 1.11.

For U7C U8C G9U U10A C12A, the “aptazyme ON/OFF ratio” value amounted to 1.22.

U7C G9C U11C C13G: the “aptazyme ON/OFF ratio” value amounted to 1.02.

Regarding U7A G9U U10A U11A C12G, the “aptazyme ON/OFF ratio” value is 1.26.

Turning to U7A G9C U11A C13A, the “aptazyme ON/OFF ratio” value was 1.02.

Regarding U8C G9A U10G U11A, the “aptazyme ON/OFF ratio” value came to 1.02.

Regarding G9C U10C U11A C12U C13G, the “aptazyme ON/OFF ratio” value was found to be 1.1.

On to U7G G9A U10G U11C C12A C13U, for which the “aptazyme ON/OFF ratio” value is 1.1.

For U8A U11A C12G, the “aptazyme ON/OFF ratio” value was 1.2.

Regarding U7C U8C G9A U10A C12G, the “aptazyme ON/OFF ratio” value worked out at 1.39.

As to U8C G9U U10C, the “aptazyme ON/OFF ratio” value was determined as 1.87.

In the case of U7G G9U U10C C13A, the “aptazyme ON/OFF ratio” value is 1.37.

For U7G U8G G9A U10C U11C C12G, the “aptazyme ON/OFF ratio” value was 1.21.
